The target in the assay is SK56. Nature of the assay: MST.

B1: GSDMC-NT–GFP (domain or fragment)
chain: MPSMLERISKNLVKEIGSKDLTPVKYLLSATKLRQFVILRKKKDSRSSFWEQSDYVPVEFSLNDILEPSSSVLETVVTGPFHFSDIMIQKHKADMGVNVGIEVSVSGEASVDHGCSLEFQIVTIPSPNLEDFQKRKLLDPEPSFLKECRRRGDNLYVVTEAVELINNTVLYDSSSVNILGKIALWITYGKGQGQGESLRVKKKALTLQKGMVMAYKRKQLVIKEKAILISDDDEQRTFQD
As to B1, the Kd was about 220 nM.
